What all share (test): cytokine release
Test [1] addresses T1, RGS5 peptide on HLA-DRA / HLA-DRB1*09:01 (human).
T1 peptide: AKEIKIKLGILLQKP

Test [2] concerns the target T2, RGS5 peptide on HLA-DRA / HLA-DRB4*01:03 (human).
T2 peptide: AKEIKIKLGILLQKP

Test [3] deals with T3, HPV18-E7 peptide on HLA-DPA1*01:03 / HLA-DPB1*02:01 (human).
T3 peptide: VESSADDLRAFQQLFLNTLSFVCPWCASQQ

Test [4] deals with T4, HPV18-E7 peptide on HLA-DPA1*02:02 / HLA-DPB1*05:01 (human).
T4 peptide: T3 peptide

In test [5] the target is T5, HPV18-E7 peptide on HLA-DRA / HLA-DRB1*09:01 (human).
T5 peptide: RAFQQLFLNTLSFVCPWCA

Test [6] has as its target T6, HPV18-E7 peptide on HLA-DRA / HLA-DRB4*01:03 (human).
T6 peptide: RAFQQLFLNTLSFVCPWCA

Test [7] has as its target T7, RGS5 peptide on HLA-DRA / HLA-DRB1*09:01 (human).
T7 peptide: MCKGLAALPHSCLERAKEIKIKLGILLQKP

The target in test [8] is T8, RGS5 peptide on HLA-DRA / HLA-DRB4*01:03 (human).
T8 peptide: T7 peptide

The record followed here is patent US20210198341A1 (published 2021).

Positions count from the first letter of the chain named.

B1: 09D01 (TCR, V domains shown)
Valpha: RKEVEQDPGPFNVPEGATVAFNCTYSNSASQSFFWYRQDCRKEPKLLMSVYSSGNEDGRFTAQLNRASQYISLLIRDSKLSDSATYLCVVNMRDSSYKLIFGSGTRLLVRP
Vbeta: GAVVSQHPSRVICKSGTSVKIECRSLDFQATTMFWYRQFPKKSLMLMATSNEGSKATYEQGVEKDKFLINHASLTLSTLTVTSAHPEDSSFYICSAHERITDTQYFGPGTRLTVL
For the molecule B1, the binding result in test [1] and in test [2] was “recognises” each time.

B2: 09H05 (TCR, V domains shown)
Valpha: B1 Valpha with R93K
Vbeta: GAVVSQHPSRVICKSGTSVKIECRSLDFQATTMFWYRQFPKKSLMLMATSNEGSKATYEQGVEKDKFLINHASLTLSTLTVTSAHPEDSSFYICSALEGTSGKETQYFGPGTRLLVL
In the case of B2, the binding result in test [1] and in test [2] was “recognises” in each case.

B3: 33D05 (TCR, V domains shown)
Valpha: AQSVTQLDSHVSVSEGTPVLLRCNYSSSYSPSLFWYVQHPNKGLQLLLKYTSAATLVKGINGFEAEFKKSETSFHLTKPSAHMSDAAEYFCVVSAIGYSSASKIIFGSGTRLSIRP
Vbeta: DTGVSQNPRHKITKRGQNVTFRCDPISEHNRLYWYRQTLGQGPEFLTYFQNEAQLEKSRLLSDRFSAERPKGSFSTLEIQRTEQGDSAMYLCASSLVAGGPAETQYFGPGTRLLVL
In the case of B3, the binding result in test [3] and in test [4] was “recognises” in each case.

B4: 10F04 (TCR, V domains shown)
Valpha: QKEVEQDPGPLSVPEGAIVSLNCTYSNSAFQYFMWYRQYSRKGPELLMYTYSSGNKEDGRFTAQVDKSSKYISLFIRDSQPSDSATYLCAMSPRSGYALNFGKGTSLLVTP
Vbeta: DGGITQSPKYLFRKEGQNVTLSCEQNLNHDAMYWYRQDPGQGLRLIYYSQIVNDFQKGDIAEGYSVSREKKESFPLTVTSAQKNPTAFYLCASSMDAALGEKLFFGSGTQLSVL
On to B4, for which the binding result in test [5] and in test [6] was “recognises” in each case.

B5: 09E01 (TCR, V domains shown)
Valpha: GQQVMQIPQYQHVQEGEDFTTYCNSSTTLSNIQWYKQRPGGHPVFLIQLVKSGEVKKQKRLTFQFGEAKKNSSLHITATQTTDVGTYFCAGPGNQFYFGTGTSLTVIP
Vbeta: NAGVTQTPKFQVLKTGQSMTLQCAQDMNHEYMSWYRQDPGMGLRLIHYSVGAGITDQGEVPNGYNVSRSTTEDFPLRLLSAAPSQTSVYFCASSSWDRDQPQHFGDGTRLSIL
Consider B5, for which the binding result in test [7] and in test [8] was “recognises” each time.
